Numbering of substitutions follows the chain as printed.
T1: ABCG2 (Homo sapiens, UniProt Q9UNQ0)
T1 construct: expressed in transfected cells
T1 sequence (Q9UNQ0 1-655): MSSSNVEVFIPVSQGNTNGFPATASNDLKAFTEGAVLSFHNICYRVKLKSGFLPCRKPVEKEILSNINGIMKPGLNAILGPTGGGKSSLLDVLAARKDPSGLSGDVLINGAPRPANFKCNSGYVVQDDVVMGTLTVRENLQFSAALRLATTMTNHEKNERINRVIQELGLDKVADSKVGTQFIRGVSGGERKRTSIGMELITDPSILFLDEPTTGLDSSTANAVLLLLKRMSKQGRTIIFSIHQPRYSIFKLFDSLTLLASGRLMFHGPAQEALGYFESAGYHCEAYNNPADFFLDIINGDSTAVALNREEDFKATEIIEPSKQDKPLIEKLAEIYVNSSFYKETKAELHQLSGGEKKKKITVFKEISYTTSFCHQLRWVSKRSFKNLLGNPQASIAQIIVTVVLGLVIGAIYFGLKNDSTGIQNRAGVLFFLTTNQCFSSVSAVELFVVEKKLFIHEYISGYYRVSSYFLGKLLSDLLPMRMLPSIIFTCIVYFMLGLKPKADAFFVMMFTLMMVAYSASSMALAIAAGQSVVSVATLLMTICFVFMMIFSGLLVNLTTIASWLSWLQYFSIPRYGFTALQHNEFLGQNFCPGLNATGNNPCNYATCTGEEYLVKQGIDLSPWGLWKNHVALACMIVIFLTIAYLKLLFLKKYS

B1: G2.257 mouse: anti-ABCG2 antibody raised in mouse (antibody, V domains shown)
VH: EVQLQQSGPELVKPGASLKISCKTFGYSFTGYYMHWVKQSPEKSLEWIGKIVPSTGGTTYNQKFKAKATLTVDKSSFTAYMQLKSLTTEDSAVYYCAREKVYGYDVYYFDYWGQGTTLTVSS
VL: DIQMTQTPSSLSASLGDRVTITCSTSQGVRSYLNWYQQKPDGSVKLLIYYTSSLHSGVPSRFSGSGSGTDYSLTISNLEPEDIATYYCQQYSKLPYTFGGGTKLELK
B2: G2.247 mouse: anti-ABCG2 antibody raised in mouse (antibody, V domains shown)
VH: EVRLQQSGAELVKPGASVKLSCKTSGFTFSNSYISWLKQKPRQSLEWIAWIYAGTGGTNYNQKFTGKAQLTVDTSSSTAYMQLSSLTSEDSAIYYCATYGNFLYAMDNWGQGTSVTVSS
VL: DIVMTQSPASLSASVGETVTITCRASGNIHNYLAWYQQKQGKSPQLLVYNTKTLADGVPSRFSGSGSGTQYSLKINSLQPEDFGSYYCQHFWSTPWTFGGGTKLEIK
B3: G2.252 mouse: anti-ABCG2 antibody raised in mouse (antibody, V domains shown)
VH: B2 VH with R3Q, N108Y, S114T, V115L
VL: B2 VL with D1E, M4L, T51A
B4: G2.302 Humanized: humanized version of anti-ABCG2 antibody G2.302 (antibody, V domains shown)
VH: EIQLVQSGAEVKKPGASVKVSCKASGYTFTDYYINWVRQAPGQRLEWIGWIYPGNVNVKYNEKFKGRATLTVDTSASTGYMELSSLRSEDTAVYFCARSIGLRYFDNWGQGTLVTVSS
VL: EKVLTQSPATLSLSPGERATLSCRASSSVHYMYWHQQKPGQSPRLWIYYTSNLAPGVPARFSGSGSGNDYTLTISSLEPEDFAVYYCQQFTTSTWTFGGGTKLEIK
B5: G2.394 rat: anti-ABCG2 antibody raised in rat (antibody, V domains shown)
VH: EVQLKESGPGLVQPSQTLSLTCTVSGFSLTDYTITWVRQPPGKGLEWIAATSVGGATHYNSPLKSRLSISGDTSKSQVFLKMNSLRTEDTAMYFCVRSGYYSTYMNWGRGTMVTVSS
VL: DVVMTQTPPTFSATIGQSVSISCRSSQSLLHSSGNTFLSWLLQRPGQPPQLLIYLVSRLEFGVPNRFSGSGSGTDFTLKISGVEAEDLGVYYCVQSTHVMNTFGAGTKLEIK
B6: G2.346 rat: anti-ABCG2 antibody raised in rat (antibody, V domains shown)
VH: SVQWKESGPGLVQPSQTLSLTCTVSGFSLTSNGVSWVRQPPGKGLEWIAAISSGGSTYYNSGLKSRLSISRDTSKSQVFLKMNSLQTEDTAIYFCTRAGYYGYNPIWFTYWGQGTLVTVSS
VL: DVVMTQTPPTLSATIGQSVSISCRSSQSLLHGSGNTYLNWLLQRPGQPPQILIYLVSRLESRVPKRFSGSGSGTDFTLKISGVEADDLGVYYCVQSTHAPFTFGSGTKLELK
B7: G2.348 rat: anti-ABCG2 antibody raised in rat (antibody, V domains shown)
VH: B6 VH with S1E, W4L, K5V, V12M, A50T, S56N, Y58N, G62A, A98V, T109A
VL: DVVMTQTPPTLSATIGHSVSISCRSSQSLFHSSGNTYLSWFLQRPGQPPQLLIYLVSRLESRVPNRFSGSGSGTDFTLKISVLEAEDLGVYYCVQTTHAPFTFGSGTKLEIK
B8: G2.636.hu47: humanized variant of the anti-ABCG2 antibody G2.636 (antibody, V domains shown)
VH: EVQLVESGGGLVQPGGSLRLSCAASGFTFSRFYMAWVRQAPGKGLEWVAHISHGGDTTYYRDSVKGRFTISRDNSKNTLYLQMNSLRAEDTAVYYCTTSAAPWNYVMDGWGQGATVTVSS
VL: DIQLTQSPSSLSASVGDRVTLTCKGSQNINNFLAWYQQKPGKAPKLLIYKTNSLHTGIPSRFSGSGSGTDYTLTISSLQPEDFATYYCYQYNNGYTFGQGTKLEIK
B9: G2.640: Anti-G2 antibody raised in rats; VH SEQ ID NO:415, VL SEQ ID NO:416 (antibody, listed as Rattus norvegicus, V domains shown)
VH: EVKLEESGPGLVQPSQTLSLTCTVSGFSLTSDGVSWVRQPPGKGLEWIAAISSGGSTYYNSALKSRLSISRDTSKSQVFLKMNSLQTEDTAIYFCTRDTYYGYNQIPFVYWGQGTLVTVSS
VL: DIVIIQSPPSLSASLGDKVTISCQASQNIHRYIAWYQQKPGKAPRLLIRYTSTLESGTPSRFSGSGSGRDYSFSISNVESEDIASYYCLQYVNLWTFGGGTKLELK
B10: G2.757: anti-ABCG2 monoclonal antibody (antibody, V domains shown)
VH: QVTLKESGPGILRPSHTLSLTCSFSGFSLTTYGICVSWIRQPSGKGLEWLANICWEDSKAYNPSLKNRLTISKDTSNNQVFLRIPSVDTADSAIYYCARVFNNYPFPYWGQGTLVTVSS
VL: TQSPPSLSASLGDKVTITCQASQNINKYVAWYQQKPGKAPRLLIRYTSTLESGTPSRFSGSGSWRDYSFSISNVESEDIADYYCLQYVNLWTFGGGTKLELK
B11: G2.760: anti-ABCG2 monoclonal antibody (antibody, V domains shown)
VH: EVQLVESGGGLVQPGRSMKLSCAASGFTFSKSDMAWVRQAPTKGLKWVASIRYDGGNTYYRDSVRGRFTISRDNAKSTLYLQMDSLRSEDTATYYCSTAKAAISTPSYYVLDAWGQGASVTVSS
VL: DIGMTQSPTSMSKSVGDRVTMNCKASQNVGSNVDWFQQKTGQSPKLLIYKSSNRYTGVPARFTGSGSGTDFTFTISNMQAEDLAVYYCMQSNSYPPTFGGGTKLELK
B12: G2.748: anti-ABCG2 monoclonal antibody (antibody, V domains shown)
VH: QVSLKESGPGMLQPSKTLSLTCSFSGFSLSTSGMVVNWIRQPSGKSLEWLAAIDWDGDKYYNPSLKHRLTVSKDTSNTQVVLKITSVDTADTATYYCARSIAPYRGWFGYWGQGTLVTVSS
VL: EIVLIQSPSSLPASLGERVTIICRASQDIGNNLNWYQQKPDGTIKPLIYFTSNFQSGVPSSFSGSRSGTDFSLTISSLEAEDFAMYYCQQDASLPWTFGGGTKLEIK

Target: T1, ABCG2
Test: not given
Type: cell-based
Details: not given
Experimental: 293T_ABCG2_OX cells were washed several times and aliquoted into 96-well plates as 50 μl aliquots/well at a cell density of 2×10e6 cells per ml in phenol red-free DMEM. Cells were mixed with 50 μl antibodies or the small molecule inhibitors of ABCG2:-fumitremorgin C (FTC), or its tetracyclic analogue K0143, with a final concentration of 1 μM. Cells were then incubated in the presence of 2.5 μM Mitoxantrone 1 h at 37° C. The cells were subsequently washed twice and finally resuspended in […] PBS. Mitoxantrone fluorescence was measured using excitation at 635 nm and emission at 647 nm. Protocols was measuring efflux blockade are found in Szabo E, et al., PLoS One. 2018 Jan. 17; 13(1):e0190629; Deeken J F, et al., Mol Pharmacol. 2009 November; 76(5):946-56).

Molecule	Block Efflux	efflux inhibition activities and binding to human and cynomolgus ABCG2 of humanized G2.636 antibodies
B1	−	
B2	−	
B3	−	
B4	−	
B5	−	
B6	−	
B7	−	
B8		particularly good expression and activity

Tested on: cynomolgus ABCG2
Test: Flow cytometry binding to 293T cells overexpressing cynomolgus ABCG2
Design: key to Cynomolgus ABCG2 binding: binding=“+”; non-significant binding=“−”
Details: not given
Experimental: (§1) Cell Binding Assays. Antibody binding to cells was evaluated by flow cytometry. 293T cells stably transfected to express human or cynomolgus ABCG2 (293T_ABCG2_OX) were washed once in flow cytometry buffer (PBS+2% FBS+0.02% sodium azide), resuspended at 2×10^6 cells/mL in flow cytometry buffer, and dispensed into 96-well microtiter plates at 0.1 mL/well. Recombinant antibodies were added to cells at 5 ug/mL for initial binding confirmation, or serially diluted from 100 ug/mL in flow cytometry buffer. After incubating cells on ice for 30 min, cells were washed twice with flow cytometry buffer. Bound antibody was detected with PE-labeled F(ab′)2 fragment goat anti-human IgG (Jackson ImmunoResearch) and evaluated on an Attune NxT flow cytometer. EC50 is calculated to be the concentration of antibody that gives half maximal response.

cynomolgus ABCG2, sequence (as listed by the source): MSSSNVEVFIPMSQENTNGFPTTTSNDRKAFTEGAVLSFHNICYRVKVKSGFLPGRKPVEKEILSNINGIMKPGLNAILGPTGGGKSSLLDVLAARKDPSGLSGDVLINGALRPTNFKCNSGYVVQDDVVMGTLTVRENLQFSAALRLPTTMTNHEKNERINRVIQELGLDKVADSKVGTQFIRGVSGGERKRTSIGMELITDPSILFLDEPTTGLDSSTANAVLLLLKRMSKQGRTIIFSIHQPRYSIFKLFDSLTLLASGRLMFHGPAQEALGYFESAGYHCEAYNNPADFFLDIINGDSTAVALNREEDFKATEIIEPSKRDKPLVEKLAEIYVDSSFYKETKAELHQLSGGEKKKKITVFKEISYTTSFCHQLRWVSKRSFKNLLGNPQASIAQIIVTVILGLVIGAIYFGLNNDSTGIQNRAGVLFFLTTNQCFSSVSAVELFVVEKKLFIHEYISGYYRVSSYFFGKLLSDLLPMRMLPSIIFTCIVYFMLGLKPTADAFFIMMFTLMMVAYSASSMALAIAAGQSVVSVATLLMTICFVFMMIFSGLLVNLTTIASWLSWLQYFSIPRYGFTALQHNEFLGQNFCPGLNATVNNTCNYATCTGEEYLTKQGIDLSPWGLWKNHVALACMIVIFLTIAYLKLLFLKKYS

Molecule	Cynomolgus ABCG2 binding
B1	+
B2	−
B3	−
B4	+
B5	+
B6	+
B7	+

Same assay, conditions: in words; FIGS. 7-11, 21

Molecule	binding to 293T cells overexpressing cynomolgus ABCG2
B9	did not show significant binding
B10	good binding affinity
B11	good binding affinity
B12	good binding affinity

Target: T1, ABCG2
Test: Flow cytometry binding to 293T cells overexpressing human ABCG2 (293T_ABCG2_OX)
Design: key to Binding by FACS: binding=“+”; non-significant binding=“−”
Details: 293T_ABCG2_OX cells
Experimental: as §1

Molecule	Binding by FACS
B1	+
B2	+
B3	+
B4	+
B5	+
B6	+
B7	+

Same assay, conditions: in words; FIGS. 7-11, 21

Molecule	binding to 293T cells overexpressing human ABCG2
B9	did not show significant binding
B10	good binding affinity
B11	good binding affinity
B12	good binding affinity
